Measurements from the nanobody polyreactivity screen of Harvey et al. (2022).

assay: yeast display, Sf9 membrane polyspecificity reagent, FACS + sequencing; frameworks hold sequencing errors
Outline: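 A synthetic nanobody library was expressed on Saccharomyces cerevisiae BJ5465 by galactose induction for 36–48 hours. The library was stained for 1 hour at 4 °C with 10% biotinylated, detergent-solubilized Sf9 membrane reagent and enriched with streptavidin microbeads before FACS. Low and high (top ~1%) gates were set on anti-HA fluorescence for expression and streptavidin fluorescence for reagent binding, and each polyreactivity label reflects the gate of origin.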

Sequence	polyreactivity (PSR sort gate)
QVQLVESVGGLVQAGGSLRLSCAASGRIFGPYVMGWYRQAPGKERELVAAISTSGTSTYYADSVKGRFTISRDNAKNTDYLPMNSLKPEDTAVYYCAIRSGARHRLMDYWGQGTQVTVSS	low polyreactivity
QDQLVESGGGLVQAGGSLRLSCAASGSIFVGYAMGWYRQAPGKETELVAAISTRGGSTYYADSVKGRFTISRDNAKNTVYLQMNSVKPEDTAVYYCAADYLDSTYGYVYGWDDYWGQGTQVTVSS	low polyreactivity
QVQLVESGGGLVQAGGSLRLSCAASGFIFYLNAMGWYRQAPGKERELVAAISGRGGRTYYADSVKGRFTISRDNAKNTVYLQMNSLKPEDTAVYYCAAQYVPSRYGYWGQGTQVTVSS	high polyreactivity
QVQLVESGGGLVQAGGSLRLSCAASGSTFGYYAMGWYRQAPGKERELVAAISGSGGSTYYADSVKGRFTISRDNAKNTVYLQMNSLKPEDTAVYYCAATFHRLPKWGSPYYYWGQGTQVTVSS	high polyreactivity
QVQLVESGGGLVQAGGSLRLSCAASGSIFSYYAMGWYRQAPGKERELVAGISISTGSTYYADSVKGRFTISRDNAKNTVYLQMNSLKPEDNAVYYCAAAQDDGYSQDIYYQLSAYDYWGQGTQVTVSS	low polyreactivity
QVQLVESGGGLFHAGGSLRLSCAASGRIFYNYAMGWSRQAPGKERELVAAISGSGGSTYYADSVKGRFTISRDNAKNTVYLQMNSLKPDDTAVYYCSTSGPQYYSRNFDYWGQGTQVTVSS	low polyreactivity
QVQLVESGGGLVQAGGSLRLSCAASGFIFTYYAMGWYRQAPGKERELVAAITSGGSTNYADSVKGRFTISRDNAKITVYLQMNSLKPEDTAVYYCASRIYYGRFWYDYWGQGTQVTVSS	high polyreactivity
QVQLVESGGGLVQAGGSLRLSCAASGRIFTDYTMGWYRQAPGKERELVAAISYSGGSTYYADSVKGRFTISRDNAKNSVYLQMNSLKPEDTAVYYCNRDPQKYRWIPRYDYWGHGTQVTVSS	low polyreactivity
QVQLVESGGGLVQAGGSLRLSCAASGFTYVYNAMGWYRQAPGTERELVAAISSGGSTYYADSVKGRFTISRDNAKYTVYLQMNSLKPEDTAVYYCARRSSWFKYEYWGQGTQVTVSS	low polyreactivity
QVQLVESGGGLVQAGGSLRLSCAASGSSFGVNAMGWYRQAPGKERELVADISVRTDSTYYADSVKGRFTISRDNAKNTVYLQMNSLKPEDTAVYYCAAEVPYYYPGFYSYYDDSDYWGQGTQVTVSS	low polyreactivity
QVQLVESGGGLVQAGGSLRLSCAASGFTFRFYAMGWYRQAPGKERELVATISSRGGRTYYADSVKGRFTISRDNAKNTVYLQMNSLKPEDTAVYYCNKDLYRYPGYDYWGQGTQVTVSS	high polyreactivity
QVQLVESGGGLVQAGGSLRLSCPASGFNFLYYAMGWYRQAPGTEREFVAAIRSSGTTTSYADSVKGRFTISRDNAKNTVYLEMISLKPVDTAVYYCAAGYFGPQQYYYWGQGSQVTVSS	high polyreactivity
QVQLVESGGGLVQAGGSLRLSCAASGFIIKFYAMGWYRQAPGKERELVATITISSGTTYYADSVKGRFTISRDTAKNTVYLQMNSLKPEDTAVYYCAASTLPAWPYDGPAGPRYDYWGQGTQVTVSS	low polyreactivity
QVQLVESGGGLVQAGGSLRLSCAASGRTFPRYAMGWYRQAPGKERELVAAISGTGGSTYYADSVKGRFTISRDNAKNTVYLQMNSLKPEDTAVYYCAAAFRDGFTRRYGYWGQGTQVTVSS	high polyreactivity
QVQLVESGGGLVQAGGSLRLSCAASGIIFYKNVMGWYRQAPGKERELVAAINRSGGRTYYADSVKGRFTISRDNAKNTVYLQMNSLKPEDTAVYYCARSGTVFGRTYDYWGQGTQVTVSS	high polyreactivity
QVQLVESGGGLVQAGGSLRLSCAASGLTFGYYAMGWYRQAPGKERELVAVISGGGGTHYADSVKGRFTISRDNAKNTVYLQMNSLKPEDTAVYYCAARYRAQQIARYYYWGQGTQVTVSS	high polyreactivity
QVQLVESGGGLVQAGGSLRLSCAASGSILSYYVMGWYRQAPGKERELVAAITSDGSKNYADSVKGRFTISRDNAKNTVYLQMNSLKPEDTAVYYCAAVIAWYYGVQDVYYLGLYDYWGQGTQVTVSS	low polyreactivity
QVQLVESGGGLVQAGGSLRLSCAASGRTFLYNTMGWYRQAPGKERELVAVISIDGGGTYADSVKGRFTISRDNAKNNVYLQMNSLKPEDTAVYDCAVDALCITYGYWGQGTQVTVSS	low polyreactivity
QVQLVESGGGLVQAGGSLRLSCAASVLIMGYYAMGWYRQAPGKERELVAAISSTGSTNYADSVKGRFTISRDNAKNTVYLQMNTLKQEDTAVYYCAAVPPRKDYQHMDYWGQGTQVTVSS	low polyreactivity
QVQLVESGGGLVQAGGSLRLSCAASGRIFYSYAMGWYRQAPGKEREFVAVISSDGGSTYYADSVKGRFTISRDNAKNTVYLQMNSLKPEDTAVYYCNAEIDYDVYEYDYWGQGTQVTVSS	low polyreactivity
QVQLVESGGGLVQAGGSLRLSCAASGRIFVDYVMGWYRQAPGKERELVARITWIGGNTYYADSVKGRFTISRDNAKNTVYLQMKSLKPEETAVYYCNAGLTLLSRRHEGWYGYDYWGQGTQVTVSS	low polyreactivity

Sequence	polyreactivity (PSR sort gate)
QVHLVESGGGIVQAGGSLRLSCAASGRTFRKYAMGWYRQAPGKEMELVAAISWSGGSTYYANSVKGRFTISRDHAKNTVYLQLNSLIPEDPAVYYCAATAYYYYDYDYWGQGTQVTVSS	low polyreactivity
QDQLVESRAGLVQAGGSLRLSCADTGNIFDFNAIGSYRQAPGKERELVAAISQRGTRTYYADSVKGRFTISRDNAKNTVYLQMKSLKPDYTAVYYCNRGGWRQYDSWGQGTQVTVSS	high polyreactivity
QVQLVESGGGLVQAGGSLRLSCAASGRIIIRYAMGWYRQAPGKERELVAGISRRGGSTSYADSVKWRFTISRDNAKNTVYLQMNSLKPEDTAVYYCGADSQYKYDYWGQGTQVTVSS	high polyreactivity
QVQLQESGGGLMQAGGNLRLSCAASGYISTHYDMDWYRQAPGKERELVARIDDGAITNYADSVKGRFTISRDNAKNTVYLQMNSLKPEDTAVYYCAVSSGDDYYHDYWGQGTQVTVSS	low polyreactivity
QVQLVESGGGLVQAGGSLRLSCAAWSIFYLNAMGLYRQAPGKERELVAAISWGGGSTNYADSVKGRFTISRDNAKNTVYLQMNSLKPEDTAVYYCARTPESLSAREFNYWGQGTEVTVSS	low polyreactivity
QVQLVESGGGLVQAGGSLRLSCAASGTIFWIYAMGWYRQAPGKERELVATITRRGGSTYYADSVKGRFTISRDNATNTVYLQMNSLKPEDTAVYFCATEPGYTYLTSYKYDYWGQGTQVTVSS	low polyreactivity
QVQLVESGGGLVQAGGSLRLSCAASGFIFQYYAMGWYREAPGKERELVAAISKTGGSTYYADSVKGRFTISRDNAKNTVYLQMNSLKPEDTAVYYCAVARSAYYRGNHWGQGSQVTVSS	high polyreactivity
QVQLVESGGGLVQAGGSLRLSCAASGLIFTSYAMGWYRQAPGKERELVAAISTGGGRTYYADSVKGRFTISRDNAKNTVYLQMNSLKPEDTAVYYCAADSVTYGYDYWGQGTQVTVSS	high polyreactivity
QVQRVESGGGLVQAGGSLRLSCAASGRILGKYAMGRYIQAPGKEREVVAAIRLRGGSTYYADSVKGRFTISRDNAKNTVYLQMNSLKPEDTAVYYCAATYWDRSQAYNYWGQGTQVTVSY	high polyreactivity
QVQLVESGGGLVQAGGSLRLSCAASGSIFYWNTMGWYRQAPGKERELVAAISYSGGSTYYADSVKGRFTISRDNAKNTVYLQMNSLKPEDTAVYYCAAKYYNRFYYWGQGTQVTVSS	high polyreactivity
QVQLVESGGGLVQAGGSLRLSCAASGRIFRTYAMGWYRQAPGKERELVAAISYSGGSTFYADSVKGRFTISRDNAKNTVYLQMNSLKPEDTAVYYCAADSRAKRYYWGQGTQVTVSS	high polyreactivity
QVQLVESGGVLVQAGGSLRLSCAASGRIFGSYTMGWYRQAPGKERELVAGISRRGGSTYYADSVKGRFTISRDNAKNTVYLQMNSLNPEDTAVYYCAAVSSVFSVRYDYWGQGTQVTVSS	high polyreactivity
QVQLVESGGGLVQAGGSLRLSCAASGSIFYKYMGWNIQAPGKERELVAAISWSGGRTYYADSVKGRFTISRDNAKNTVYLQMNSLKPEDTAVYYCNRVVLWRIGDKAFEYWGQGTQVTVSS	high polyreactivity
QVQLVESGGGLVQAGGSLRLSCAASGNIFRRYAMGWYRQAPGKERELVAAISISGGNTYYADSVKGRFTISRDNAKNTVYLQMNSLKPEDTAVYYCNAVGRYSEYGYWGQGTQVTVSS	high polyreactivity
QVQLVESGGGLVQAGGSLRISCAASASIFPQYALGWYRQAPGKERELVAGISGSGGGTYYADSVKGRFTISRDNAKNTVSVQIHSLKPEDTAVYYCYDYWRQGTQVTVSS	low polyreactivity
QVQLVESGGGLVQAGGSLRLSCAASGSTFLPNAMGWYRQAPGKERELVAAISYRGGGTFYADSVKGRFTISRDNAKNTVYLQMNSLKPEDTAVYYCADDWSWFDNFDYWGQGTQVTVSS	low polyreactivity
QVQLVESGGGLVQAGGSLRLSCAASGFIFSSNAMGGYRQAPGKERELDATISFSGDSTYYADSVKGRFTISRDNEKNTVYLQMNSLKPEDTAVYYCARSTYYRWYKYGYYDYNYWGQGTQVTVSS	low polyreactivity
QVQLVESGGGLVQAGGSLRLSCAASGSIFDYYAMGWYRQAPGKETELVAAITYGGGSTYYADSVKGRFTISRDNAKNTVYLQMNSLKPEDTAVYYCNALGENYQFNYWGQGTQVTVSS	low polyreactivity
QVQLVESGGGLVQAGGILRLSSAASGFIFKANAMGWSRQAPGKERELVAVITRRGGSTYYADSVKGSFTISRDNAKNTVYLQMNSLKREDTAVYYSAKEGSARYGPSDAYDYWGQGTQVTVSS	high polyreactivity
QVQLVESGGGIVQAGGSLRLSCAASGRIFWWYAMGMYRQAPGKERELVAVIDDSGGITYYADSVKGRFTISRDNAKNTVYLQMNSLKPEDTAVYYCARNVNAQKVLGGFDSWGQGTQVTVSS	low polyreactivity
